The text below walks through data of patent US20250270332A1.

B1: CM0011 (Dia-Fc-Dia) (bispecific antibody)
chain 1: MNLLLILTFVAAAVAEFEVQLVESGGGLVQPGGSLRLSCAASGFNIGSSSIHWVRQAPGKGLEWVASIYSAFASTSYADSVKGRFTISADTSKNTAYLQMNSLRAEDTAVYYCARYHFPFGFALDYWGQGTLVTVSSGGGGSDIQMTQSPSSLSASVGDRVTITCRASQSVSSAVAWYQQKPGKAPKLLIYSASSLYSGVPSRFSGSRSGTDFTLTISSLQPEDFATYYCQQGVYLFTFGQGTKVEIKLEDKTHTKVEPKSSDKTHNCPPCPAPELLGGPSVFLFPPKPKDTLMISRTPEVTCVVVDVSHEDPEVKFNWYVDGVEVHNAKTKPREEQYNSTYRVVSVLTVLHQDWLNGKEYKCKVSNKALPAPIEKTISKAKGQPREPQVYTLPPIRELMTSNQVSLSCAVKGFYPSDIAVEWESNGQPENNYKTTPPVLDSDGSFFLVSKLTVDKSRWQQGNVFSCSVMHEALHNHYTQKSLSLSPGKSGSETPGTSESATPESGGGEVQLVESGGGLVQPGGSLRLSCAASGFNISSYYIHWVRQAPGKGLEWVASIYSSYGYTSYADSVKGRFTISADTSKNTAYLQMNSLRAEDTAVYYCARTVRGSKKPYFSGWAMDYWGQGTLVTVSSGGGGSDIQMTQSPSSLSASVGDRVTITCRASQSVSSAVAWYQQKPGKAPKLLIYSASSLYSGVPSRFSGSRSGTDFTLTISSLQPEDFATYYCQQYSWGPFTFGQGTKVEIK
chain 2: MNLLLILTFVAAAVAEFEVQLVESGGGLVQPGGSLRLSCAASGFNIGSSSIHWVRQAPGKGLEWVASIYSAFASTSYADSVKGRFTISADTSKNTAYLQMNSLRAEDTAVYYCARYHFPFGFALDYWGQGTLVTVSSGGGGSDIQMTQSPSSLSASVGDRVTITCRASQSVSSAVAWYQQKPGKAPKLLIYSASSLYSGVPSRFSGSRSGTDFTLTISSLQPEDFATYYCQQGVYLFTFGQGTKVEIKLEDKTHTKVEPKTSDKTHTCPPCPAPELLGGPSVFLFPPKPKDTLMISRTPEVTCVVVDVSHEDPEVKFNWYVDGVEVHNAKTKPREEQYNSTYRVVSVLTVLHQDWLNGKEYKCKVSNKALPAPIEKTISKAKGQPREPMVFDLPPSREEMTKNQVSLWCMVKGFYPSDIAVEWESNGQPENNYKTTPPVLDSDGSFFLYSKLTVDKSRWQQGNVFSCSVMHEALHNHYTQKSLSLSPGKSGSETPGTSESATPESGGGEVQLVESGGGLVQPGGSLRLSCAASGFNISYSSIHWVRQAPGKGLEWVAYISSYYGYTYYADSVKGRFTISADTSKNTAYLQMNSLRAEDTAVYYCARAHYFPWAGAMDYWGQGTLVTVSSGGGGSDIQMTQSPSSLSASVGDRVTITCRASQSVSSAVAWYQQKPGKAPKLLIYSASSLYSGVPSRFSGSRSGTDFTLTISSLQPEDFATYYCQQYYWPITFGQGTKVEIK
B2: CT0003 (bispecific antibody)
chain 1: MNLLLILTFVAAAVAEFEVQLVESGGGLVQPGGSLRLSCAASGFNISSYYIHWVRQAPGKGLEWVASIYSSYGYTSYADSVKGRFTISADTSKNTAYLQMNSLRAEDTAVYYCARTVRGSKKPYFSGWAMDYWGQGTLVTVSSGGGGSDIQMTQSPSSLSASVGDRVTITCRASQSVSSAVAWYQQKPGKAPKLLIYSASSLYSGVPSRFSGSRSGTDFTLTISSLQPEDFATYYCQQYSWGPFTFGQGTKVEIKLEDKTHTKVEPKSSDKTHNCPPCPAPELLGGPSVFLFPPKPKDTLMISRTPEVTCVVVDVSHEDPEVKFNWYVDGVEVHNAKTKPREEQYNSTYRVVSVLTVLHQDWLNGKEYKCKVSNKALPAPIEKTISKAKGQPREPQVYTLPPIRELMTSNQVSLSCAVKGFYPSDIAVEWESNGQPENNYKTTPPVLDSDGSFFLVSKLTVDKSRWQQGNVFSCSVMHEALHNHYTQKSLSLSPGKSGSETPGTSESATPESGGGEVQLVESGGGLVQPGGSLRLSCAASGFNIHSSSIHWVRQAPGKGLEWVAATYSSFGSITYADSVKGRFTISADTSKNTAYLQMNSLRAEDTAVYYCARYHHPFGYALDYWGQGTLVTVSSGTTAASGSSGGSSSGADIQMTQSPSSLSASVGDRVTITCRASQSVSSAVAWYQQKPGKAPKLLIYSASSLYSGVPSRFSGSRSGTDFTLTISSLQPEDFATYYCQQGVYLFTFGQGTKVEIK
chain 2: MNLLLILTFVAAAVAEFEVQLVESGGGLVQPGGSLRLSCAASGFNISYSSIHWVRQAPGKGLEWVAYISSYYGYTYYADSVKGRFTISADTSKNTAYLQMNSLRAEDTAVYYCARAHYFPWAGAMDYWGQGTLVTVSSGGGGDIQMTQSPSSLSASVGDRVTITCRASQSVSSAVAWYQQKPGKAPKLLIYSASSLYSGVPSRFSGSRSGTDFTLTISSLQPEDFATYYCQQYYWPITFGQGTKVEIKLEDKTHTKVEPKTSDKTHTCPPCPAPELLGGPSVFLFPPKPKDTLMISRTPEVTCVVVDVSHEDPEVKFNWYVDGVEVHNAKTKPREEQYNSTYRVVSVLTVLHQDWLNGKEYKCKVSNKALPAPIEKTISKAKGQPREPMVFDLPPSREEMTKNQVSLWCMVKGFYPSDIAVEWESNGQPENNYKTTPPVLDSDGSFFLYSKLTVDKSRWQQGNVFSCSVMHEALHNHYTQKSLSLSPGKSGSETPGTSESATPESGGGEVQLVESGGGLVQPGGSLRLSCAASGFNIHSSSIHWVRQAPGKGLEWVAATYSSFGSITYADSVKGRFTISADTSKNTAYLQMNSLRAEDTAVYYCARYHHPFGYALDYWGQGTLVTVSSGTTAASGSSGGSSSGADIQMTQSPSSLSASVGDRVTITCRASQSVSSAVAWYQQKPGKAPKLLIYSASSLYSGVPSRFSGSRSGTDFTLTISSLQPEDFATYYCQQGVYLFTFGQGTKVEIK
B3: ANT-1 (bispecific antibody)
heavy 1: MNLLLILTFVAAAVAEFEVQLVESGGGLVQPGGSLRLSCAASGFNISSYYIHWVRQAPGKGLEWVASIYSSYGYTSYADSVKGRFTISADTSKNTAYLQMNSLRAEDTAVYYCARTVRGSKKPYFSGWAMDYWGQGTLVTVSSGGGGSDIQMTQSPSSLSASVGDRVTITCRASQSVSSAVAWYQQKPGKAPKLLIYSASSLYSGVPSRFSGSRSGTDFTLTISSLQPEDFATYYCQQYYFLITFGQGTKVEIKLEDKTHTKVEPKSSDKTHNCPPCPAPELLGGPSVFLFPPKPKDTLMISRTPEVTCVVVDVSHEDPEVKFNWYVDGVEVHNAKTKPREEQYNSTYRVVSVLTVLHQDWLNGKEYKCKVSNKALPAPIEKTISKAKGQPREPQVYTLPPIRELMTSNQVSLSCAVKGFYPSDIAVEWESNGQPENNYKTTPPVLDSDGSFFLVSKLTVDKSRWQQGNVFSCSVMHEALHNHYTQKSLSLSPGKSGSETPGTSESATPESGGGEVQLVESGGGLVQPGGSLRLSCAASGFNIHSSSIHWVRQAPGKGLEWVAATYSSFGSITYADSVKGRFTISADTSKNTAYLQMNSLRAEDTAVYYCARYHHPFGYALDYWGQGTLVTVSSASTKGPSVFPLAPSSKSTSGGTAALGCLVKDYFPEPVTVSWNSGALTSGVHTFPAVLQSSGLYSLSSVVTVPSSSLGTQTYICNVNHKPSNTKVDKKVEPKSCDKTHT
heavy 2: MNLLLILTFVAAAVAEFEVQLVESGGGLVQPGGSLRLSCAASGFNISYSSIHWVRQAPGKGLEWVASISPYYGYTYYADSVKGRFTISADTSKNTAYLQMNSLRAEDTAVYYCARSSYFPWFSAMDYWGQGTLVTVSSGGGGSDIQMTQSPSSLSASVGDRVTITCRASQSVSSAVAWYQQKPGKAPKLLIYSASSLYSGVPSRFSGSRSGTDFTLTISSLQPEDFATYYCQQYYWPITFGQGTKVEIKLEDKTHTKVEPKTSDKTHTCPPCPAPELLGGPSVFLFPPKPKDTLMISRTPEVTCVVVDVSHEDPEVKFNWYVDGVEVHNAKTKPREEQYNSTYRVVSVLTVLHQDWLNGKEYKCKVSNKALPAPIEKTISKAKGQPREPMVFDLPPSREEMTKNQVSLWCMVKGFYPSDIAVEWESNGQPENNYKTTPPVLDSDGSFFLYSKLTVDKSRWQQGNVFSCSVMHEALHNHYTQKSLSLSPGKSGSETPGTSESATPESGGGEVQLVESGGGLVQPGGSLRLSCAASGFNIHSSSIHWVRQAPGKGLEWVAATYSSFGSITYADSVKGRFTISADTSKNTAYLQMNSLRAEDTAVYYCARYHHPFGYALDYWGQGTLVTVSSASTKGPSVFPLAPSSKSTSGGTAALGCLVKDYFPEPVTVSWNSGALTSGVHTFPAVLQSSGLYSLSSVVTVPSSSLGTQTYICNVNHKPSNTKVDKKVEPKSCDKTHT
light: DIQMTQSPSSLSASVGDRVTITCRASQSVSSAVAWYQQKPGKAPKLLIYSASSLYSGVPSRFSGSRSGTDFTLTISSLQPEDFATYYCQQGVYLFTFGQGTKVEIKRTVAAPSVFIFPPSDEQLKSGTASVVCLLNNFYPREAKVQWKVDNALQSGNSQESVTEQDSKDSTYSLSSTLTLSKADYEKHKVYACEVTHQGLSSPVTKSFNRGEC
B4: CH3 (Dia-CH3-Dia) (bispecific antibody)
chain: MNLLLILTFVAAAVAEFEVQLVESGGGLVQPGGSLRLSCAASGFNIGSSSIHWVRQAPGKGLEWVASIYSAFASTSYADSVKGRFTISADTSKNTAYLQMNSLRAEDTAVYYCARYHFPFGFALDYWGQGTLVTVSSGGGGSDIQMTQSPSSLSASVGDRVTITCRASQSVSSAVAWYQQKPGKAPKLLIYSASSLYSGVPSRFSGSRSGTDFTLTISSLQPEDFATYYCQQGVYLFTFGQGTKVEIKDKTHTKVEPKTSDKTHTCPPCPGQPREPQVYTLPPSREEMTKNQVSLTCLVKGFYPSDIAVEWESNGQPENNYKTTPPVLDSDGSFFLYSKLTVDKSRWQQGNVFSCSVMHEALHNHYTQKSLSLSPGKGTTAASGSSGGSSSGAGRTEVQLVESGGGLVQPGGSLRLSCAASGFNISYSSIHWVRQAPGKGLEWVAYISSYYGYTYYADSVKGRFTISADTSKNTAYLQMNSLRAEDTAVYYCARAHYFPWAGAMDYWGQGTLVTVSSGGGGSDIQMTQSPSSLSASVGDRVTITCRASQSVSSAVAWYQQKPGKAPKLLIYSASSLYSGVPSRFSGSRSGTDFTLTISSLQPEDFATYYCQQYSWGPFTFGQGTKVEIK

This assay addresses FZD1/2/4/5/7/8. Description: cell-based or functional assay.
B1 displayed a % Wnt Maxima Avg of 63%; an EC50 (nM), TOPFLASH assay of 0.3 nM; a Maximal Signal (% Wnt3a maxima) (% Wnt3a maxima) of 63; a Topflash EC50 (nM) Avg of 0.3 nM.
B2 showed a % Wnt Maxima Avg of 42%; an EC50 (nM), TOPFLASH assay of 0.4 nM; a Maximal Signal (% Wnt3a maxima) (% Wnt3a maxima) of 42; a Topflash EC50 (nM) Avg of 0.4 nM.
Take B3: the % Wnt Maxima Avg came out at 49%; the EC50 (nM), TOPFLASH assay turned out to be 0.7 nM; the Maximal Signal (% Wnt3a maxima) (% Wnt3a maxima) was found to be 50; the Topflash EC50 (nM) Avg was 0.7 nM.
Turning to B4, the Maximal Signal (% Wnt3a maxima) (% Wnt3a maxima) stood at 22.
